Target: S protein (UniProt P61823)
Assay: affinity column capture; EGFP fluorescence of column fractions as percent of input

Sequence of UniProt P61823 (P61823 47-150): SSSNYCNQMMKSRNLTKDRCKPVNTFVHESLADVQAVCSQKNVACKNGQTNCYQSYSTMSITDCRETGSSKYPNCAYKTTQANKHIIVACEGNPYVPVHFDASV

Substance: S tag-bearing target protein (EGFP)
- percent of input target protein bound: 50%
